Measurements published in the supplement of paper PMC7877785.
± gives the uncertainty stated by the source.

Assay: self-splicing fitness, log relative to wild type (ln ratio); higher = more splicing; Tetrahymena group I intron in knt gene, E. coli kanamycin selection, DiMSum; sequences stand for … in CUCUCU…GGAGGGAAAAGUUAUCAGGCAUGCACCUGGUAGCUAGUCUUUAAACCAAUAGAUUGCAUCGGUUUAAAAGGCAAGACCGUCAAAUUGCGGGAAAGGGGUCAACAGCCGUUCAGUACCAAGUCUCAGGGGAAACUUUGAGAUGGCCUUGCAAAGGGUAUGGUAAUAAGCUGACGGACAUGGUCCUAACCACGCAGCCAAGUCCUAAGUCAACAGAUCUUCUGUUGAUAUGGAUGCAGUUCACAGACUAAAUGUCGGUCGGGGAAGAUGUAUUCUUCUCAUAAGAUAUAGUCGGACCUCUCCUUAAUGGGAGCUAGCGGAUGAAGUGAUGCAACACUGGAGCCGCUGGGAACUAAUUUGUAUGCGAAAGUAUAUUGAUUAGUUUUGGAGUACUCGUGGUCG
In short: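 A randomised library covering all eight P1ex-region intron nucleotides was built with the intron in the knt kanamycin-resistance gene on pET-22b(+) and held in E. coli BL21(DE3). Cells were grown overnight at 37°C or 30°C on LB agar, with or without 25 μg/mL kanamycin, plus 100 μg/mL carbenicillin, 50 μM IPTG and 0.2% rhamnose, and pooled colonies were amplicon-sequenced on an Illumina HiSeq 2500. DiMSum fitness is the error-weighted combination of wild-type-normalised replicate fold changes, kanamycin versus none.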

Sequence	self-splicing fitness (ln) (30 °C)	self-splicing fitness (ln) (37 °C)
ACGCAGCAAUAUUACGAAGC	-3.38 ± 0.24	-1.6 ± 0.28
GAAUAGCAAUAUUACGGGGC	-3.15 ± 0.43	–
GCAGAGCAAUAUUACGGGCG	-3.2 ± 0.17	-0.961 ± 0.14
AAUGAGCAAUAUUACGUAUU	-3.41 ± 0.14	-2.48 ± 0.16
CACUAGCAAUAUUACGGGCU	-4.24 ± 0.39	-3.52 ± 0.33
AACUAGCAAUAUUACGUAUC	-3.83 ± 0.34	-2.38 ± 0.29
AUAGAGCAAUAUUACGCGGC	-3.33 ± 0.35	-1.78 ± 0.25
ACUGAGCAAUAUUACGGUGC	-3.32 ± 0.19	-1.9 ± 0.18
GGCAAGCAAUAUUACGUAGA	0.226 ± 0.077	0.582 ± 0.11
GAGAAGCAAUAUUACGGGUU	-1.88 ± 0.11	-1.87 ± 0.16
CUCGAGCAAUAUUACGACCA	-3.07 ± 0.26	-2.22 ± 0.49
ACACAGCAAUAUUACGAAAC	-3.02 ± 0.23	-1.82 ± 0.22
AUUCAGCAAUAUUACGGCAG	-1.14 ± 0.11	-0.688 ± 0.14
AAUUAGCAAUAUUACGAAAC	–	-0.761 ± 0.4
CUAAAGCAAUAUUACGGCCG	0.821 ± 0.14	0.575 ± 0.21
GUGUAGCAAUAUUACGAAUU	-2.33 ± 0.064	-1.85 ± 0.097
CUACAGCAAUAUUACGUACA	-1.78 ± 0.17	-1.29 ± 0.2

Sequence	self-splicing fitness (ln) (30 °C)	self-splicing fitness (ln) (37 °C)
GAUGAGCAAUAUUACGCUUC	-4.04 ± 0.43	–
AAGGAGCAAUAUUACGCGAC	-2.44 ± 0.41	-1.54 ± 0.35
UCAAAGCAAUAUUACGAGGG	-2.11 ± 0.12	-1.03 ± 0.12
AGCCAGCAAUAUUACGCUAA	-2.53 ± 0.18	-0.465 ± 0.12
GCCGAGCAAUAUUACGAGUU	-1.62 ± 0.12	-0.709 ± 0.15
GAUGAGCAAUAUUACGGAUA	-3.94 ± 0.42	-2.52 ± 0.26
GGGCAGCAAUAUUACGUCAU	-0.717 ± 0.066	0.195 ± 0.076
CAGAAGCAAUAUUACGGCCA	-1.5 ± 0.26	-1.83 ± 0.21
CGAUAGCAAUAUUACGGCGU	-0.866 ± 0.085	0.51 ± 0.12
UUGGAGCAAUAUUACGGUCA	-1.21 ± 0.16	-2.65 ± 0.23
UGCCAGCAAUAUUACGCUGU	-3.59 ± 0.37	-1.37 ± 0.17
UAACAGCAAUAUUACGUAGU	-3.35 ± 0.14	-2.7 ± 0.18
UAUAAGCAAUAUUACGACAG	-0.587 ± 0.11	-0.0617 ± 0.15
CGAUAGCAAUAUUACGGGCA	-2.06 ± 0.14	-1.53 ± 0.15
GCUUAGCAAUAUUACGACCU	-0.423 ± 0.1	0.203 ± 0.14
UAGUAGCAAUAUUACGAAUC	-2.9 ± 0.48	–
CCGAAGCAAUAUUACGCUGA	-3.08 ± 0.27	-3.41 ± 0.42
